Reference: article PMC4022735, “Structural and Biochemical Characterization Reveals LysGH15 as an Unprecedented “EF-Hand-Like” Calcium-Binding Phage Lysin” (PLoS Pathogens, 2014)

Biological target: T1, LysGH15 SH3b domain (residues 368–495) (staphylococcal phage GH15, 15N (and/or 13C) labelled for NMR; N-terminal SNA tag remnant omitted (PDB 2MK5 entity residues 4-131 = 368-495))
T1 chain: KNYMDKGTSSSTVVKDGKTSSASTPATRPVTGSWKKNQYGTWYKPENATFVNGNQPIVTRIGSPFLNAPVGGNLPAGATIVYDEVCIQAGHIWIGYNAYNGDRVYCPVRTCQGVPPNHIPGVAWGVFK
Experiment: NMR titration; 1H-15N HSQC spectra of 15N-labelled SH3b on addition of the peptide (100 mM stock in the buffer of the SH3b sample); 298 K; KD from a fit of the chemical shift perturbations; fast exchange
Conditions: both partners purified

B1: peptide “AGGGGG” (peptide)
peptide: AGGGGG
notes: synthetic peptide used as previously reported for the SH3b domain of ALE-1; Not a stretch of a named natural protein; also called the peptide; source: synthetic peptide (Sangon Biotech (Shanghai) Co., Ltd.)
Kd: ~3000 µM
